Data published in PMC4159076 (Cell reports, 2013).
Values belong to the molecule of their own block, whether it stands above or below them.

Legend:
[1] = biological target: NPM (Flag-NPM / GST-NPM constructs) (UniProt P06748); assay: GST pull-down, anti-Flag western blot; settings: reference: Flag-NPM wild type; sites S125
[2] = biological target: endogenous NPM (human cells) (human (endogenous in HEK293)) (UniProt P06748); assay: denaturing gel electrophoresis with western blot
[3] = biological target: the molecule itself; assay: denaturing gel electrophoresis with western blot

binding against the reference [1]: weaker
Molecule: NPM (Flag-NPM / GST-NPM constructs) (from UniProt P06748) Flag-NPM S125A

stoichiometry N [2]: 6
Molecule: endogenous NPM (human cells) (from UniProt P06748 1-294) (natural protein)

B1: nucleophosmin (NPM) (endogenous, mouse cells) (natural protein, UniProt Q61937 1-292, looked up)
chain: MEDSMDMDMSPLRPQNYLFGCELKADKDYHFKVDNDENEHQLSLRTVSLGAGAKDELHIVEAEAMNYEGSPIKVTLATLKMSVQPTVSLGGFEITPPVVLRLKCGSGPVHISGQHLVAVEEDAESEDEDEEDVKLLGMSGKRSAPGGGNKVPQKKVKLDEDDEDDDEDDEDDEDDDDDDFDEEETEEKVPVKKSVRDTPAKNAQKSNQNGKDLKPSTPRSKGQESFKKQEKTPKTPKGPSSVEDIKAKMQASIEKGGSLPKVEAKFINYVKNCFRMTDQEAIQDLWQWRKSL
stoichiometry N [3]: 6
